In article PMC8565734, “Construction of ferritin hydrogels utilizing subunit–subunit interactions” (PLoS ONE, 2021):

Biological target: the molecule itself
Experiment: SEC; Superdex 200 increase 10/300 GL, 50 mM potassium phosphate buffer, pH 7.0, 4°C; solution obtained after heating the apoferritin hydrogel at 90°C for 30 min; sizes estimated from a standard curve of standard proteins

B1: horse L apoferritin without eight N-terminal residues (Fer8) (domain or fragment, UniProt P02791 9-175, looked up)
chain: YSTEVEAAVNRLVNLYLRASYTYLSLGFYFDRDDVALEGVCHFFRELAEEKREGAERLLKMQNQRGGRALFQDLQKPSQDEWGTTLDAMKAAIVLEKSLNQALLDLHALGSAQADPHLCDFLESHFLDEEVKLIKKMGDHLTNIQRLVGSQAGLGEYLFERLTLKHD
notes: horse L ferritin (ferritin light chain), printed as 'without eight N-terminal residues'; theoretical [Fer8 subunit + H+] = 19148; The limit 9-end follows from 'without eight N-terminal residues'; also called recombinant horse apoferritin; Fer8 subunit; source: E. coli Nova blue cells (plasmid pKIT8), purified (heat 60°C, Q Sepharose, HiTrap Q HP, SEC); gelled by acid denaturation and …
B1 was tested, and the “stoichiometry N” value was 24.
